# Measured values as given in patent US20260266848A1, “COMPOSITIONS AND METHODS FOR DIAGNOSING AND TREATING DYSTONIA” (Duke University, priority 2023, published 2026).
# Assays:
# [1] = test system: WT MEF EVs; experiment: Quantitative LC-MS/MS proteomics of EVs from ISRIB-treated WT MEF cultures; assay type: cell-based, mouse; parameters: key to ISRIB and DYT Parallel Direction / ISRIB and DYT Parallel Direction, Ctdsp1 / ISRIB and DYT Parallel Direction, Pcdh19 / ISRIB and DYT Parallel Direction, Tspan7 / ISRIB and DYT Parallel Direction, Myo1e / ISRIB and DYT Parallel Direction, Plpp3 / ISRIB and DYT Parallel Direction, Sh3bp4 / ISRIB and DYT Parallel Direction, Dnajc7 / ISRIB and DYT Parallel Direction, Drg1 / ISRIB and DYT Parallel Direction, Maea: YES = protein abundance effect similar to DYT/WT; conditions: EV protein abundance; for WT + ISRIB/WT Cohen's d: ISRIB-treated WT vs WT; for ISRIB and DYT Parallel Direction: WT + ISRIB vs WT, direction compared with DYT/WT
# [2] = test system: DYT-TOR1A MEF EVs; experiment: Quantitative LC-MS/MS proteomics of EVs from drug-treated DYT-TOR1A MEF cultures (ritonavir, salubrinal); assay type: cell-based, mouse; parameters: key to RTV Corrective Direction / RTV Corrective Direction, Grwd1 / RTV Corrective Direction, Srrm2 / RTV Corrective Direction, Rbm17 / RTV Corrective Direction, Dcaf8 / RTV Corrective Direction, Edil3 / RTV Corrective Direction, Timp3 / RTV Corrective Direction, Heatr3 / RTV Corrective Direction, Brd4 / RTV Corrective Direction, P3h4 / RTV Corrective Direction, Pacsin3 / RTV Corrective Direction, Naa50 / RTV Corrective Direction, Lpar6 / RTV Corrective Direction, Ndrg1 / RTV Corrective Direction, Kntc1 / RTV Corrective Direction, Cdk11b / RTV Corrective Direction, Sumo1 / RTV Corrective Direction, Lsm4 / RTV Corrective Direction, Hmga2 / RTV Corrective Direction, Cstf1 / RTV Corrective Direction, Tes / RTV Corrective Direction, Sbno1 / RTV Corrective Direction, Unc119b / RTV Corrective Direction, Cfdp1 / RTV Corrective Direction, Sec61b: YES = protein abundance effect opposite to DYT/WT; conditions: EV protein abundance; for RTV Corrective Direction: DYT + RTV (ritonavir) vs DYT, direction compared with DYT/WT; for DYT + RTV/DYT Cohen's d: ritonavir (RTV)-treated DYT vs DYT
Molecule,WT + ISRIB/WT Cohen's d [1],ISRIB and DYT Parallel Direction [1],RTV Corrective Direction [2],DYT + RTV/DYT Cohen's d [2]
"Apex1 (protein, UniProt P28352 2-317, looked up) DNA repair nuclease/redox …: PKRGKKAAADDGEEPKSEPETKKSKGAAKKTEKEAAGEGPVLYEDPPDQKTSPSGKSATLKICSWNVDGLRAWIKKKGLDWVKEEAPDILCLQETKCSENKLPAELQELPGLTHQYWSAPSDKEGYSGVGLLSRQCPLKVSYGIGEEEHDQEGRVIVAEFESFVLVTAYVPNAGRGLVRLEYRQRWDEAFRKFLKDLASRKPLVLCGDLNVAHEEIDLRNPKGNKKNAGFTPQERQGFGELLQAVPLADSFRHLYPNTAYAYTFWTYMMNARSKNVGWRLDYFLLSHSLLPALCDSKIRSKALGSDHCPITLYLAL",−0.67,YES,YES,8.06
"Shmt2 (protein, UniProt Q9CZN7 30-504, looked up) Serine …: KVAQTQAGEAAGGWTGQESLSDSDPEMWELLQREKDRQCRGLELIASENFCSRAALEALGSCLNNKYSEGYPGKRYYGGAEVVDEIELLCQRRALEAFDLDPAQWGVNVQPYSGSPANLAAYTALLQPHDRIMGLDLPDGGHLTHGYMSDVKRISATSIFFESMPYKLNPQTGLIDYDQLALTARLFRPRLIIAGTSAYARLIDYARMREVCDEVRAHLLADMAHISGLVAAKVIPSPFKYADVVTTTTHKTLRGARSGLIFYRKGVRTVDPKTGKEIPYTFEDRINFAVFPSLQGGPHNHAIAAVAVALKQACTPMFREYSLQVLRNAQAMADALLKRGYSLVSGGTDTHLVLVDLRPKGLDGARAERVLELVSITANKNTCPGDRSAITPGGLRLGAPALTSRQFREDDFRRVVDFIDEGVNIGLEVKRKTAKLQDFKSFLLKDPETSQRLANLRQQVEQFARGFPMPGFDER",−1.44,YES,YES,8.98
"Lipg (protein, UniProt Q9WVG5 21-500, looked up) Endothelial lipase: SITTLRPQGSLRDEHHKPTGVPATARPSVAFNIRTSKDPEQEGCNLSLGDSKLLENCGFNMTAKTFFIIHGWTMSGMFESWLHKLVSALQMREKDANVVVVDWLPLAHQLYTDAVNNTRVVGQRVAGMLDWLQEKEEFSLGNVHLIGYSLGAHVAGYAGNFVKGTVGRITGLDPAGPMFEGVDINRRLSPDDADFVDVLHTYTLSFGLSIGIRMPVGHIDIYPNGGDFQPGCGFNDVIGSFAYGTISEMVKCEHERAVHLFVDSLVNQDKPSFAFQCTDSSRFKRGICLSCRKNRCNNIGYNAKKMRKKRNSKMYLKTRAGMPFKVYHYQLKVHMFSYNNSGDTQPTLYITLYGSNADSQNLPLEIVEKIELNATNTFLVYTEEDLGDLLKMRLTWEGVAHSWYNLWNEFRNYLSQPSNPSRELYIRRIRVKSGETQRKVTFCTQDPTKSSISPGQELWFHKCQDGWKMKNKTSPFVNLA",−2.47,YES,YES,2.88
"Ephx1 (protein, UniProt Q9D379 1-455, looked up) Epoxide hydrolase 1: MWLELILASVLGFVIYWFVSRDKEETLPLEDGWWGPGSKPSAKEDESIRPFKVETSDEEIKDLHQRIDRFRASPPLEGSRFHYGFNSSYLKKVVSFWRNEFDWRKQVEILNQYPHFKTKIEGLDIHFIHVKPPQLPSGRTPKPLLMVHGWPGSFYEFYKIIPLLTDPKTHGLSDEHVFEVICPSIPGYGFSEASSKKGLNSVATARIFYKLMSRLGFQKFYIQGGDWGSLICTNIAQMVPNHVKGLHLNMSFISRNIYSLTPLLGQRFGRFLGYTEKDLELLYPFKEKVFYNIMRESGYLHIQATKPDTVGCALNDSPVGLAAYILEKFSTWTKSEYRELEDGGLERKFSLEDLLTNIMIYWTTGTIVSSQRFYKENLGQGVMVHRHEGMKVFVPTGYSAFPSEILHAPEKWVKVKYPKLISYSYMERGGHFAAFEEPKLLAQDIRKFVSLAELQ",−0.32,YES,YES,1.48
